Measurements: paper PMC7094161

Columns and labels:
[1] = target: CDC25C substrate peptide of the EKAR construct; assay: FRET or BRET; FRET/FLIM: EGFP fluorescence lifetime of EKAR constructs (WW domain and peptide on one chain) in living COS cells; serum in the medium
[2] = target: CDC25C substrate peptide of the EKAR construct; assay: FRET or BRET; FRET/FLIM: EGFP fluorescence lifetime of EKAR constructs (WW domain and peptide on one chain) in fixed, mounted COS cells; serum in the medium

Pin1 WW domain of the EKAR construct, sequence (Q13526 5-39): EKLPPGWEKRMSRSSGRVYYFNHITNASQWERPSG

How did the EGFP fluorescence lifetime [1] turn out when “Pin1 WW domain of the EKAR construct (from UniProt Q13526 5-39) (domain or fragment)” was run?
The EGFP fluorescence lifetime was 2.12 ns.

And the EGFP fluorescence lifetime [2]?
The EGFP fluorescence lifetime was 1.68 ns.
